From US20200165325A1
Like-named read-outs stand apart in the source and are kept apart here.

How the values were obtained:
[1] = biological target: HIV-1 Env of strain CAP210.2.00.E8 (HIV-1)
[2] = biological target: HIV-1 Env of strain Du172.17 (HIV-1)
[3] = biological target: HIV-1 Env of strain CAP45.2.00.G3 (HIV-1)
[4] = biological target: HIV-1 Env of strain SC422661.8 (HIV-1)
[5] = biological target: HIV-1 Env of strain TRO.11 (HIV-1)
[6] = biological target: HIV-1 Env of strain AC10.0.29 (HIV-1)
[7] = biological target: Env (gp120) of HIV-1 strain CAP210.2.00.E8 (HIV-1)
[8] = biological target: Env (gp120) of HIV-1 strain CAP45.2.00.G3 (HIV-1)
[9] = biological target: Env (gp120) of HIV-1 strain SC422661.8 (HIV-1)
[10] = biological target: Env (gp120) of HIV-1 strain Du172.17 (HIV-1)
[11] = biological target: Env (gp120) of HIV-1 strain AC10.0.29 (HIV-1)
[12] = biological target: Env (gp120) of HIV-1 strain TRO.11 (HIV-1)
[13] = biological target: Env (gp120) of HIV-1 strain QH0692.42 (HIV-1)
[14] = biological target: Env (gp120) of HIV-1 strain ZM214M.PL15 (HIV-1)
[15] = biological target: Env (gp120) of HIV-1 strain CAP45.2.00.G3 (HIV-1); remark: listed apart in the source
[16] = biological target: Env (gp120) of HIV-1 strain SC422661.8 (HIV-1); remark: listed apart in the source
[17] = biological target: Env (gp120) of HIV-1 strain T257-31 (HIV-1)
[18] = biological target: Env (gp120) of HIV-1 strain AC10.0.29 (HIV-1); remark: listed apart in the source
[19] = biological target: Env (gp120) of HIV-1 strain TRO.11 (HIV-1); remark: listed apart in the source

Substance: 3BNC55 T54W IgG (antibody)
- In vitro neutralization IC50 [1]: > 50 µg/mL
- In vitro neutralization IC50 [2]: > 50 µg/mL
- In vitro neutralization IC50 [3]: > 50 µg/mL
- In vitro neutralization IC50 [4]: 0.6 µg/mL
- In vitro neutralization IC50 [5]: > 50 µg/mL
- In vitro neutralization IC50 [6]: > 50 µg/mL

Substance: 3BNC60 T54W IgG (antibody)
- In vitro neutralization IC50 [1]: 5 µg/mL
- In vitro neutralization IC50 [2]: 0.04 µg/mL
- In vitro neutralization IC50 [3]: 19 µg/mL
- In vitro neutralization IC50 [4]: 0.1 µg/mL
- In vitro neutralization IC50 [5]: 0.06 µg/mL
- In vitro neutralization IC50 [6]: 3.1 µg/mL

Substance: 3BNC117 T54W IgG (antibody)
- In vitro neutralization IC50 [1]: 2.8 µg/mL
- In vitro neutralization IC50 [2]: 0.9 µg/mL
- In vitro neutralization IC50 [3]: 23 µg/mL
- In vitro neutralization IC50 [4]: 0.07 µg/mL
- In vitro neutralization IC50 [5]: 0.6 µg/mL
- In vitro neutralization IC50 [6]: 2.8 µg/mL

Substance: 12A12 Y54W IgG (antibody)
- In vitro neutralization IC50 [1]: > 50 µg/mL
- In vitro neutralization IC50 [2]: 0.1 µg/mL
- In vitro neutralization IC50 [3]: 0.2 µg/mL
- In vitro neutralization IC50 [4]: 0.2 µg/mL
- In vitro neutralization IC50 [5]: 0.2 µg/mL
- In vitro neutralization IC50 [6]: 0.5 µg/mL

Substance: NIH45-46 G54H IgG (antibody)
- neutralization IC50 [7]: > 50 µg/mL
- neutralization IC50 [8]: > 50 µg/mL
- neutralization IC50 [9]: 0.09 µg/mL
- neutralization IC50 [10]: > 50 µg/mL
- neutralization IC50 [11]: 0.6 µg/mL
- neutralization IC50 [12]: 0.2 µg/mL

Substance: NIH45-46 G54I IgG (antibody)
- neutralization IC50 [7]: > 50 µg/mL
- neutralization IC50 [8]: > 50 µg/mL
- neutralization IC50 [9]: 0.1 µg/mL
- neutralization IC50 [10]: > 50 µg/mL
- neutralization IC50 [11]: 8.6 µg/mL
- neutralization IC50 [12]: 10 µg/mL

Substance: NIH45-46 G54L IgG (antibody)
- neutralization IC50 [7]: > 50 µg/mL
- neutralization IC50 [8]: > 50 µg/mL
- neutralization IC50 [9]: 0.1 µg/mL
- neutralization IC50 [10]: > 50 µg/mL
- neutralization IC50 [11]: 1.7 µg/mL
- neutralization IC50 [12]: 0.3 µg/mL

Substance: NIH45-46 G54M IgG (antibody)
- neutralization IC50 [7]: > 50 µg/mL
- neutralization IC50 [8]: > 50 µg/mL
- neutralization IC50 [9]: 0.06 µg/mL
- neutralization IC50 [10]: > 50 µg/mL
- neutralization IC50 [11]: 1.5 µg/mL
- neutralization IC50 [12]: 0.3 µg/mL

Substance: NIH45-46 Y99dA (antibody)
- neutralization IC50 [13]: 2.1 µg/mL
- neutralization IC50 [14]: 1.1 µg/mL
- neutralization IC50 [15]: > 50 µg/mL
- neutralization IC50 [16]: 0.08 µg/mL
- neutralization IC50 [17]: 2.4 µg/mL
- neutralization IC50 [18]: 4.4 µg/mL
- neutralization IC50 [19]: > 50 µg/mL
